T1: EsCas13d, nuclease-dead (Eubacterium siraeum, UniProt B0MS50, R295A;H300A;R849A;H854A)
T1 sequence: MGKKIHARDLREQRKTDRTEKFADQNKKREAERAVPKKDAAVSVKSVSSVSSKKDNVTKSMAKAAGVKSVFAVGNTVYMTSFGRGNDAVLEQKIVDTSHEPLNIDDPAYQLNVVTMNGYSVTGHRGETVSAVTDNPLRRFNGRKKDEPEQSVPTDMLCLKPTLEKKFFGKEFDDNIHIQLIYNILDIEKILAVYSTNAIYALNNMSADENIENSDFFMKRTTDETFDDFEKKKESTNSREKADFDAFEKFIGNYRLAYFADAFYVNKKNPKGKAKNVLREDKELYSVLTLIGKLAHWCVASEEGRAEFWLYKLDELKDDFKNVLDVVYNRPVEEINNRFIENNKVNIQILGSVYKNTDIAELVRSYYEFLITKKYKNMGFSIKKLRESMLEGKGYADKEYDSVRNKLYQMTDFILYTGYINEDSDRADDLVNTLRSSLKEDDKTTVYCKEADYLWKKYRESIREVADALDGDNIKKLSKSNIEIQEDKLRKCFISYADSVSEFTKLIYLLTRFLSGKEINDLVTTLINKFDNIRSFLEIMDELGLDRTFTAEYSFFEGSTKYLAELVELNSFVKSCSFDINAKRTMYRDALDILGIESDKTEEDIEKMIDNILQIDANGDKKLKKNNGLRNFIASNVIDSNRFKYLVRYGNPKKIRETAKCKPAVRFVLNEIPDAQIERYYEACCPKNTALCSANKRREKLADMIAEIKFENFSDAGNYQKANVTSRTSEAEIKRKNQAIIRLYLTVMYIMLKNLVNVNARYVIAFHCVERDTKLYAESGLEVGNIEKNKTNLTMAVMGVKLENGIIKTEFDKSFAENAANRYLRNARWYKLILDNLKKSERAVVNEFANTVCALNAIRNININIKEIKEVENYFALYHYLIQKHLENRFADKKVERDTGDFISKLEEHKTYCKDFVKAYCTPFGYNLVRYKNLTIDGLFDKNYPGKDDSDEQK

B1: target 1 MT 5'PFS UCA 3'PFS ACA (mixed)
RNA 1: CACCCGUGCAAAAAUGCAGGGGUCUAAAACUGAGCGGAUAACCUCUCUAUGG
RNA 2: GGGAAUGGAUCCACAUCUACGAAUUCUCACCAUAGAGAGGUUAUCCGCUCAACAAGAUCGGAAGAGCACACGU
B2: target 1 MT 5'PFS UCA 3'PFS ACU (mixed)
RNA 1: B1 RNA 1
RNA 2: B1 RNA 2 with A54U
B3: target 1 MT 5'PFS AGG 3'PFS CGU (mixed)
RNA 1: B1 RNA 1
RNA 2: B1 RNA 2 with U27A, C28G, A29G, A52C, C53G, A54U
B4: target 1 C2U,G12C (mixed)
RNA 1: B1 RNA 1
RNA 2: B1 RNA 2 with U27G, C28U, G40C, C50U, A52C, A54G
B5: target 1 MT 5'PFS GGC 3'PFS ACA (mixed)
RNA 1: B1 RNA 1
RNA 2: B1 RNA 2 with U27G, C28G, A29C
B6: target 1 MT 5'PFS ACG 3'PFS CUG (mixed)
RNA 1: B1 RNA 1
RNA 2: B1 RNA 2 with U27A, A29G, A52C, C53U, A54G
B7: target 1 MT 5'PFS CUG 3'PFS AAG (mixed)
RNA 1: B1 RNA 1
RNA 2: B1 RNA 2 with U27C, C28U, A29G, C53A, A54G
B8: target 1 MT 5'PFS ACG 3'PFS CUA (mixed)
RNA 1: B1 RNA 1
RNA 2: B1 RNA 2 with U27A, A29G, A52C, C53U
B9: target 1 MT 5'PFS CCU 3'PFS AAC (mixed)
RNA 1: B1 RNA 1
RNA 2: B1 RNA 2 with U27C, A29U, C53A, A54C
B10: target 1 MT 5'PFS AGG 3'PFS CGC (mixed)
RNA 1: B1 RNA 1
RNA 2: B1 RNA 2 with U27A, C28G, A29G, A52C, C53G, A54C
B11: target 1 MT 5'PFS GCA 3'PFS ACC (mixed)
RNA 1: B1 RNA 1
RNA 2: B1 RNA 2 with U27G, A54C
B12: target 1 MT 5'PFS GAA 3'PFS CCU (mixed)
RNA 1: B1 RNA 1
RNA 2: B1 RNA 2 with U27G, C28A, A52C, A54U
B13: target 1 MT 5'PFS GCU 3'PFS AUU (mixed)
RNA 1: B1 RNA 1
RNA 2: B1 RNA 2 with U27G, A29U, C53U, A54U
B14: target 1 MT 5'PFS AUG 3'PFS UGA (mixed)
RNA 1: B1 RNA 1
RNA 2: B1 RNA 2 with U27A, C28U, A29G, A52U, C53G
B15: target 1 MT 5'PFS CAG 3'PFS UUG (mixed)
RNA 1: B1 RNA 1
RNA 2: B1 RNA 2 with U27C, C28A, A29G, A52U, C53U, A54G
B16: target 1 MT 5'PFS CGC 3'PFS CCG (mixed)
RNA 1: B1 RNA 1
RNA 2: B1 RNA 2 with U27C, C28G, A29C, A52C, A54G
B17: target 1 MT 5'PFS GAG 3'PFS UAG (mixed)
RNA 1: B1 RNA 1
RNA 2: B1 RNA 2 with U27G, C28A, A29G, A52U, C53A, A54G
B18: target 1 MT 5'PFS GGC 3'PFS ACG (mixed)
RNA 1: B1 RNA 1
RNA 2: B1 RNA 2 with U27G, C28G, A29C, A54G
B19: target 1 MT 5'PFS GCU 3'PFS AUA (mixed)
RNA 1: B1 RNA 1
RNA 2: B1 RNA 2 with U27G, A29U, C53U
B20: target 1 MT 5'PFS CCU 3'PFS AAA (mixed)
RNA 1: B1 RNA 1
RNA 2: B1 RNA 2 with U27C, A29U, C53A
B21: target 1 MT 5'PFS UUC 3'PFS CCU (mixed)
RNA 1: B1 RNA 1
RNA 2: B1 RNA 2 with C28U, A29C, A52C, A54U
B22: target 1 MT 5'PFS GUU 3'PFS UUU (mixed)
RNA 1: B1 RNA 1
RNA 2: B1 RNA 2 with U27G, C28U, A29U, A52U, C53U, A54U
B23: target 1 MT 5'PFS UCA 3'PFS ACG (mixed)
RNA 1: B1 RNA 1
RNA 2: B1 RNA 2 with A54G
B24: target 1 MT 5'PFS UCA 3'PFS UUG (mixed)
RNA 1: B1 RNA 1
RNA 2: B1 RNA 2 with A52U, C53U, A54G
B25: target 1 MT 5'PFS UGA 3'PFS ACG (mixed)
RNA 1: B1 RNA 1
RNA 2: B1 RNA 2 with C28G, A54G
B26: target 1 MT 5'PFS AAG 3'PFS AGG (mixed)
RNA 1: B1 RNA 1
RNA 2: B1 RNA 2 with U27A, C28A, A29G, C53G, A54G
B27: target 1 MT 5'PFS AAG 3'PFS AGA (mixed)
RNA 1: B1 RNA 1
RNA 2: B1 RNA 2 with U27A, C28A, A29G, C53G
B28: target 1 MT 5'PFS GCA 3'PFS CGC (mixed)
RNA 1: B1 RNA 1
RNA 2: B1 RNA 2 with U27G, A52C, C53G, A54C
B29: target 1 MT 5'PFS CUG 3'PFS CCG (mixed)
RNA 1: B1 RNA 1
RNA 2: B1 RNA 2 with U27C, C28U, A29G, A52C, A54G
B30: target 1 insC 3' of 20,insC 3' of 18 (mixed)
RNA 1: B1 RNA 1
RNA 2: GGGAAUGGAUCCACAUCUACGAAUUCGUACCACUACGAGAGGUUAUCCGCUCACCGAGAUCGGAAGAGCACACGU
B31: target 1 MT 5'PFS AGG 3'PFS CGG (mixed)
RNA 1: B1 RNA 1
RNA 2: B1 RNA 2 with U27A, C28G, A29G, A52C, C53G, A54G
B32: target 1 MT 5'PFS GAG 3'PFS UAA (mixed)
RNA 1: B1 RNA 1
RNA 2: B1 RNA 2 with U27G, C28A, A29G, A52U, C53A
B33: target 1 C4A,A9U (mixed)
RNA 1: B1 RNA 1
RNA 2: B1 RNA 2 with U27G, C28U, A43U, C48A, A52C, A54G
B34: target 1 MT 5'PFS GAA 3'PFS CCG (mixed)
RNA 1: B1 RNA 1
RNA 2: B1 RNA 2 with U27G, C28A, A52C, A54G
B35: target 1 MT 5'PFS GAG 3'PFS UAC (mixed)
RNA 1: B1 RNA 1
RNA 2: B1 RNA 2 with U27G, C28A, A29G, A52U, C53A, A54C
B36: target 1 MT 5'PFS ACC 3'PFS UGU (mixed)
RNA 1: B1 RNA 1
RNA 2: B1 RNA 2 with U27A, A29C, A52U, C53G, A54U
B37: target 1 MT 5'PFS GCA 3'PFS CGU (mixed)
RNA 1: B1 RNA 1
RNA 2: B1 RNA 2 with U27G, A52C, C53G, A54U
B38: target 1 MT 5'PFS UCA 3'PFS UUA (mixed)
RNA 1: B1 RNA 1
RNA 2: B1 RNA 2 with A52U, C53U

A word on the Kd: it is a measure of binding affinity in units of concentration. Read a low Kd as a tighter complex.

Positions count from the first letter of the chain named. Names and notes keep the numbering of the source.

The target in the data set is T1, EsCas13d, nuclease-dead. Kind of data set: crRNA (strand 1, pre-loaded); Mg2+; 40 mM Tris-HCl pH 7.5, 150 mM NaCl, 6 mM MgCl2, 1 mM DTT, 0.1% Tween-20, 0.2 mg/ml BSA; 25 C; 10 min per concentration, then washed. The settings on record: tags: His6-TwinStrep-SUMO cleaved; N-terminal SNAP kept (SNAP-Surface 488); label: 3' end held by stalled T7 RNA polymerase.
B1: the Kd was 13.2 ± 3.35 nM. For B2 the value was 14 ± 4.5 nM; for B3, roughly 90 nM.

As for B4, binding was characterised by a dissociation constant (Kd) of 7.1 ± 0.5 nM. Then B5, with 20 ± 10 nM; and B6, with 53.5 ± 23 nM; and B7, with 12.4 ± 3.4 nM. Then B8, with roughly 32 nM; and B9, with 18 ± 4.5 nM; and B10, with 44 ± 19 nM.

In turn, B11 displayed a Kd of roughly 32 nM.

Molecule B12 came in with a Kd of roughly 21 nM. For B13 the value was 76 ± 31 nM; for B14, 52 ± 19.5 nM. Then B15, with 19.7 ± 3.55 nM.

B16 had a Kd of 19 ± 7 nM. Take B17: binding was characterised by a dissociation constant (Kd) of 46.5 ± 15.5 nM. For B18 the value was 13.5 ± 2.85 nM; for B19, 57 ± 16 nM; for B20, 59.5 ± 20 nM. B21 returned a Kd of 66 ± 27 nM.

In turn, B22 gave a Kd of 8.95 ± 0.95 nM.

As to B23, the Kd is roughly 65 nM. For B24 the value was 37 ± 9.5 nM; for B25, 110 ± 50 nM.

In turn, B26 yielded a Kd of 60.5 ± 22.5 nM. For B27 the value was 38 ± 14 nM; for B28, 71 ± 27 nM. Then B29, with 3.05 ± 0.55 nM; and B30, with 6.1 ± 0.5 nM; and B31, with 41 ± 11.5 nM. For B32 the value was 28.5 ± 8 nM; for B33, 4.45 ± 0.25 nM; for B34, 21 ± 5.5 nM. Regarding B35, the Kd was roughly 60 nM. For B36 the value was roughly 19 nM; for B37, 11.4 ± 2.2 nM. For B38 the value was 10.8 ± 2.25 nM.
